Source: the Human Domainome abundance scans (Beltran et al. 2025)

B1: Histone-lysine N-methyltransferase SETD2, residues 2382 to 2430; numbered along this chain, Q9BYW2 (parent)
chain: SPPKPKTIVLPPNWKTARDPEGKIYYYHVITRQTQWDPPTWESPGDDAS

Variants of: B1
Test: abundance fitness (aPCA) (normalised: wild type 0, dead -1); higher = more abundant; growth selection in yeast, the domain comes from the species named
Conditions: Homo sapiens

Abundance fitness, by site and new letter:
T31: G -0.927 | A -0.742 | H -0.761 | P -0.785 | L -0.748 | M -0.862 | S -0.131 | E -0.735 | Y -0.831 | Q -0.627 | I -0.945 | R -0.502 | W -1.06 | D -0.724 | K -0.651 | N -0.798
Q33: C -0.251 | A -0.149 | I -0.551 | W -0.751 | F -0.906 | E 0.099 | L -0.411 | D -0.185 | G -0.798 | R -0.318 | V -0.251 | M -0.614 | K -0.401 | P -0.904 | T -0.13 | N -0.117 | H -0.578
D19: P -0.426 | L -0.407 | Q -0.442 | Y -0.601 | R -0.535 | M -0.172 | W -0.889 | T 0.102 | S -0.103 | V -0.404
Y25: Q -0.454 | L -0.358 | V -0.395 | T -0.73 | N -0.911 | C -0.538 | G -0.844 | M -0.56 | K -0.569 | A -0.642 | W -0.907 | D -0.485 | R -0.628 | F -0.227 | P -0.784 | I -0.38 | H -0.419 | S -0.628
T34: Y -0.52 | P -0.29 | F -0.059 | L -0.342 | N -0.493 | Q -0.111 | W -0.18 | A -0.296 | C -0.109 | I -0.149 | R 0.109 | E -0.394 | V -0.075 | K -0.605 | M 0.188 | G -0.379 | D -0.774 | H -0.059
Y26: Q -0.777 | N -0.517 | S -0.786 | H -0.618 | A -0.865 | T -0.637 | W -0.498 | D -0.553 | C -0.853 | F -0.315 | G -0.934 | M -0.694 | P -0.765 | I -0.782 | E -0.981 | V -0.585 | L -0.878 | K -0.655
D37: C -0.07 | W -0.255 | A -0.049 | E 0.049 | T 0.117 | Y -0.314 | L -0.159 | N -0.298 | F -0.68 | R -0.252 | P -0.48 | I 0.005 | V 0.013 | K -0.061 | M -0.184 | Q -0.235
R32: G -0.173 | D -0.027 | Q -0.022 | K 0.13 | I -0.997 | S -0.363 | W -0.848 | M -0.15 | L -0.315 | F -0.691 | E -0.197 | N 0.031 | T -1.01 | H -0.131 | C -0.357 | P -0.617 | Y -0.215 | A -0.304 | V -1.01
P39: G -1.04 | A -0.918 | H -0.748 | C -0.812 | E -1
P20: V -0.31 | M -0.078 | L -0.223 | T 0.006 | Q 0.015 | G -0.03 | Y -0.331 | H -0.157 | W -0.367 | S -0.106 | K 0.122 | R 0.017 | E -0.074 | C -0.348 | A -0.166 | N -0.008 | D -0.122 | F -0.398 | I -0.165
Q35: G -0.735 | M -0.074 | K -0.351 | F -0.683 | W -0.722 | H -0.083 | P -0.535 | A -0.155 | S -0.062 | L -0.364 | N -0.875
